Patent publication US20240238439A1 (HUMMINGBIRD BIOSCIENCE PTE, published 2024)

T1: His-tagged recombinant human FcγRIIA (human, UniProt P12318 34-217, limits assumed)
T1 construct: Captured on a CM5 chip by the Biacore HIS capture kit; also called human FCγRIIA (CD32a); not shown: His tag
T1 sequence (looked up): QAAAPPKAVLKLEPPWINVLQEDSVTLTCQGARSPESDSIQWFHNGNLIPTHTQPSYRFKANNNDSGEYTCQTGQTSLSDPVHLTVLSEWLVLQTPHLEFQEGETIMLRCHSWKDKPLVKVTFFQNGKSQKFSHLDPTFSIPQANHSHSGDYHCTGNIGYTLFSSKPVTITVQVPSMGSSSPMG


Experiments:
Experiment in all cases: SPR (Biacore T200), His-captured receptor on CM5 chip, ADC as analyte
[1] = target: T1, His-tagged recombinant human FcγRIIA
Procedure: (§1) ADCs described in Example 2 were analysed for their ability to bind to human Fcγ receptors by surface plasmon resonance using Biacore.
(§2) Briefly, a Biacore HIS capture kit (Cytivia, Cat. #28995056) was employed to immobilize His-tagged recombinant human Fcγ receptor ligand (FcγRIA, FcγRIIA or FcγRIIIA) onto the surface of a CM5 sensor chip. […] Data capture and analysis were preformed using Biacore T200 according to manufacturer's recommendations for analyzing high-affinity antigen-antibody kinetics. Responses from all steps were reference cell-subtracted, and zero concentration-corrected to normalize for systematic disturbances. The resulting association and dissociation curves were fitted with 1:1 global fitting to obtain values for association rate (ka), dissociation rate (kd), and the equilibrium dissociation constant (KD).

[2] = target: T2, His-tagged recombinant human FcγRIA (human, UniProt P12314 16-288, limits assumed)
T2 construct: Captured on a CM5 chip by the Biacore HIS capture kit; also called human FCγRIA (CD64); not shown: His tag
Procedure: as §1, §2

[3] = target: T3, His-tagged recombinant human FcγRIIIA (human, UniProt P08637 17-208)
T3 construct: Captured on a CM5 chip by the Biacore HIS capture kit; also called human FCγRIIIA (CD16a); not shown: His tag
Procedure: as §1, §2

T2 sequence (P12314 16-288 limits assumed): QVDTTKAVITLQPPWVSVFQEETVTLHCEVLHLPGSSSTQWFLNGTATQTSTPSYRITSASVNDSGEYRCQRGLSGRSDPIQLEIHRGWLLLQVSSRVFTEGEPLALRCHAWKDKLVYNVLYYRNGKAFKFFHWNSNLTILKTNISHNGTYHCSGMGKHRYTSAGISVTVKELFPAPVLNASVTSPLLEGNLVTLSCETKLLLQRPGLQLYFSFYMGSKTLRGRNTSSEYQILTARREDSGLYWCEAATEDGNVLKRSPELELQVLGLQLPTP
T3 sequence (P08637 17-208 limits assumed): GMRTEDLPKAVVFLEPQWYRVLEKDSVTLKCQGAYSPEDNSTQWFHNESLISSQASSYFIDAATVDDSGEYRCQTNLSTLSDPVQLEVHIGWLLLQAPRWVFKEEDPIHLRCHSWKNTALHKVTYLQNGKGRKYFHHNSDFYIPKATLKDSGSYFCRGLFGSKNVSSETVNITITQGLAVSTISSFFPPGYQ

| binding result [1] | binding result [2] | binding result [3] | Binder |
| --- | --- | --- | --- |
| no binding | no binding | no binding | 501c.S8D4 (antibody, human IgG1, kappa, L234A L235A, SYNtecan E (HydraSpace-PEG2-HydraSpace-Val-Ala-PABC linker, exatecan payload) conjugated at the 6-azido-GalNAc residue of the N-glycan of N297 (EU numbering); drug-to-antibody ratio 4) heavy: not shown light: DIQMTQSPSSVSASVGDRVTITCKASQIVGSNVAWYQQKPGKAPEPLIYSASYLYSGVPSRFSGSGSGTDFTLTISSLQPEDFATYYCQQYSSHPLTFGQGTKLEIKRTVAAPSVFIFPPSDEQLKSGTASVVCLLNNFYPREAKVQWKVDNALQSGNSQESVTEQDSKDSTYSLSSTLTLSKADYEKHKVYACEVTHQGLSSPVTKSFNRGEC |
| no binding | no binding | no binding | 501b.S8D4 (antibody, human IgG1, kappa, L234A L235A, SYNtecan E (HydraSpace-PEG2-HydraSpace-Val-Ala-PABC linker, exatecan payload) conjugated at the 6-azido-GalNAc residue of the N-glycan of N297 (EU numbering); drug-to-antibody ratio 4) heavy: QVQLQESGPGLVKPSQTLSLTCTVSGYSITSGYSWHWIRQHPGKGLEWIGSIRYSGGTDYNPSLKSLVTISADTSKNQFSLKLSSVTAADTAVYYCARMTTAPWYPFDYWGQGTTVTVSSASTKGPSVFPLAPSSKSTSGGTAALGCLVKDYFPEPVTVSWNSGALTSGVHTFPAVLQSSGLYSLSSVVTVPSSSLGTQTYICNVNHKPSNTKVDKKVEPKSCDKTHTCPPCPAPEAAGGPSVFLFPPKPKDTLYITREPEVTCVVVDVSHEDPEVKFNWYVDGVEVHNAKTKPREEQYNSTYRVVSVLTVLHQDWLNGKEYKCKVSNKALPAPIEKTISKAKGQPREPQVYTLPPSRDELTKNQVSLTCLVKGFYPSDIAVEWESNGQPENNYKTTPPVLDSDGSFFLYSKLTVDKSRWQQGNVFSCSVMHEALHNHYTQKSLSLSPGK light: DIQMTQSPSSVSASVGDRVTITCKASQIVGSNVAWYQQKPGKAPEPLIYSASYLYSGVPSRFSGSGSGTDFTLTISSLQPEDFATYYCQQYSSHPLTFGQGTKLEIKRTVAAPSVFIFPPSDEQLKSGTASVVCLLNNFYPREAKVQWKVDNALQSGNSQESVTEQDSKDSTYSLSSTLTLSKADYEKHKVYACEVTHQGLSSPVTKSFNRGEC |
